The supplement of paper PMC6757056
± gives the standard deviation of the averaged measurements.

B1: library; a variant is named by its letters at N, in order (parent)
chain: GCUGUCACCGGUGUAUUACCCUAGUGGUCGACCGGUCUGAUGAGUCUNNNNNNAGACGAAACAGC

Experiments:
hypoxanthine [1] = variants of: B1; assay: normalized RNA/DNA level with ligand (relative to sTRSVctl = 100) (log10 (% of sTRSVctl)); ligand: hypoxanthine (xanthine aptamer); higher = less ribozyme self-cleavage, higher mRNA level; conditions: ligand concentration (+) RNA-Seq: 5 mM, HEK293T, reporter: mCherry (pCS4076), ligand present: yes
How it was run: (§1)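 HEK293T cells were transfected with library plasmids carrying ribozyme switches linked to an mCherry reporter, or an eGFP reporter in some ligand experiments, at 4 µg per well of a 6-well plate, with any ligand added 1 h beforehand. After 72 h, total RNA was extracted with EDTA, reverse-transcribed, amplified, barcoded and sequenced. RNA level was defined as RNA reads over DNA reads, normalized to a spiked-in non-cleaving sequence or to the top-ranked sequences. That value was multiplied by 100 and converted to log10, the top set was 25 sequences, and only sequences with ≥100 DNA reads were retained.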

hypoxanthine [2] = variants of: B1; assay: normalized RNA/DNA level without ligand (relative to sTRSVctl = 100) (log10 (% of sTRSVctl)); ligand: hypoxanthine (xanthine aptamer); higher = less ribozyme self-cleavage, higher mRNA level; conditions: HEK293T, reporter: mCherry (pCS4076), ligand present: no
How it was run: as §1

| Variant | normalized RNA/DNA level with ligand (log10) (hypoxanthine [1]) | normalized RNA/DNA level without ligand (log10) (hypoxanthine [2]) |
| --- | --- | --- |
| CAGUUG | 1.93 ± 0.046 | 1.801 ± 0.015 |
| UAGUUG | 1.93 ± 0.053 | 1.707 ± 0.0035 |
| CAGUUU | 1.95 ± 0.053 | 1.79 ± 0.018 |
| UAGUUU | 1.92 ± 0.04 | 1.86 ± 0.023 |
| UAUAAA | 1.89 ± 0.025 | 1.77 ± 0.04 |
| CAUAAC | 1.9194 ± 0.0019 | 1.83 ± 0.056 |
| AAUAAC | 1.919 ± 0.0067 | 1.81 ± 0.029 |
| GAUAAC | 1.92 ± 0.079 | 1.712 ± 0.0033 |
| UAUAAC | 1.9 ± 0.025 | 1.829 ± 0.017 |
| CAUAAG | 1.92 ± 0.016 | 1.71 ± 0.019 |
| CAUACA | 1.9 ± 0.069 | 1.78 ± 0.051 |
| CAUACC | 1.93 ± 0.023 | 1.891 ± 0.016 |
| GAUACC | 1.95 ± 0.03 | 1.875 ± 0.016 |
| UAUACC | 1.95 ± 0.12 | 1.88 ± 0.014 |
| UAUACG | 1.83 ± 0.042 | 1.686 ± 0.008 |
| CAUACU | 1.92 ± 0.04 | 1.83 ± 0.052 |
| AAUACU | 1.8942 ± 0.0003 | 1.833 ± 0.0049 |
| GAUACU | 1.94 ± 0.069 | 1.87 ± 0.029 |
| UAUAGA | 1.892 ± 0.0092 | 1.63 ± 0.019 |
| CAUAGC | 1.923 ± 0.0099 | 1.86 ± 0.014 |

| Variant | normalized RNA/DNA level with ligand (log10) (hypoxanthine [1]) | normalized RNA/DNA level without ligand (log10) (hypoxanthine [2]) |
| --- | --- | --- |
| GAUAGC | 1.87 ± 0.025 | 1.55 ± 0.097 |
| UAUAGC | 1.95 ± 0.009 | 1.83 ± 0.054 |
| CAUAGG | 1.836 ± 0.015 | 1.43 ± 0.11 |
| UAUAGG | 1.852 ± 0.017 | 1.43 ± 0.02 |
| CAUAGU | 2 ± 0.039 | 1.88 ± 0.019 |
| GAUAGU | 1.88 ± 0.059 | 1.72 ± 0.034 |
| CAUAUA | 1.9 ± 0.027 | 1.73 ± 0.028 |
| CAUAUC | 1.95 ± 0.0088 | 1.9 ± 0.012 |
| AAUAUC | 1.95 ± 0.055 | 1.945 ± 0.0067 |
| GAUAUC | 1.91 ± 0.03 | 1.908 ± 0.0029 |
| UAUAUC | 1.94 ± 0.044 | 1.936 ± 0.0031 |
| CAUAUG | 1.94 ± 0.016 | 1.86 ± 0.042 |
| CAUAUU | 1.91 ± 0.044 | 1.8 ± 0.041 |
| AAUAUU | 1.93 ± 0.088 | 1.88 ± 0.031 |
| GAUAUU | 1.8969 ± 0.0013 | 1.84 ± 0.038 |
| UAUAUU | 1.907 ± 0.0056 | 1.847 ± 0.0083 |
| CAUCAA | 1.938 ± 0.011 | 1.81 ± 0.042 |
| AAUCAA | 1.89 ± 0.066 | 1.75 ± 0.068 |
| CAUCAC | 1.96 ± 0.06 | 1.92 ± 0.062 |
| AAUCAG | 1.838 ± 0.018 | 1.56 ± 0.041 |

| Variant | normalized RNA/DNA level with ligand (log10) (hypoxanthine [1]) | normalized RNA/DNA level without ligand (log10) (hypoxanthine [2]) |
| --- | --- | --- |
| GAUCAG | 1.92 ± 0.05 | 1.72 ± 0.016 |
| UAUCAG | 1.87 ± 0.019 | 1.7 ± 0.036 |
| CAUCAU | 1.921 ± 0.011 | 1.88 ± 0.043 |
| UAUCAU | 1.922 ± 0.017 | 1.79 ± 0.045 |
| CAUCCA | 1.97 ± 0.056 | 1.94 ± 0.055 |
| AAUCCA | 1.92 ± 0.046 | 1.865 ± 0.015 |
| GAUCCA | 1.908 ± 0.0041 | 1.9 ± 0.03 |
| UAUCCA | 1.918 ± 0.0099 | 1.904 ± 0.011 |
| CAUCCC | 1.935 ± 0.0098 | 1.91 ± 0.033 |
| AAUCCC | 1.94 ± 0.024 | 1.84 ± 0.035 |
| GAUCCC | 2.05 ± 0.042 | 1.889 ± 0.0035 |
| UAUCCC | 1.95 ± 0.045 | 1.9 ± 0.023 |
| CAUCCG | 1.95 ± 0.026 | 1.91 ± 0.029 |
| CAUCCU | 1.94 ± 0.066 | 1.94 ± 0.023 |
| GAUCCU | 1.979 ± 0.014 | 1.948 ± 0.012 |
| UAUCCU | 1.958 ± 0.0052 | 1.9 ± 0.03 |
| AAUCGA | 1.92 ± 0.076 | 1.63 ± 0.034 |
| GAUCGA | 1.952 ± 0.0048 | 1.809 ± 0.0024 |
